The nature of the series: self-splicing fitness, log relative to wild type (ln ratio); higher = more splicing; Tetrahymena group I intron in knt gene, E. coli kanamycin selection, DiMSum; sequences stand for … in CUCUCU…GGAGGGAAAAGUUAUCAGGCAUGCACCUGGUAGCUAGUCUUUAAACCAAUAGAUUGCAUCGGUUUAAAAGGCAAGACCGUCAAAUUGCGGGAAAGGGGUCAACAGCCGUUCAGUACCAAGUCUCAGGGGAAACUUUGAGAUGGCCUUGCAAAGGGUAUGGUAAUAAGCUGACGGACAUGGUCCUAACCACGCAGCCAAGUCCUAAGUCAACAGAUCUUCUGUUGAUAUGGAUGCAGUUCACAGACUAAAUGUCGGUCGGGGAAGAUGUAUUCUUCUCAUAAGAUAUAGUCGGACCUCUCCUUAAUGGGAGCUAGCGGAUGAAGUGAUGCAACACUGGAGCCGCUGGGAACUAAUUUGUAUGCGAAAGUAUAUUGAUUAGUUUUGGAGUACUCGUGGUCG
In a few lines:
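Library with all eight P1ex-region intron nucleotides randomised, intron inside the knt kanamycin-resistance gene on pET-22b(+), in E. coli BL21(DE3). Cells grew overnight at 37°C or 30°C on LB agar with or without 25 μg/mL kanamycin (plus 100 μg/mL carbenicillin, 50 μM IPTG, 0.2% rhamnose), in six replicate transformations. Pooled colonies were amplicon-sequenced on Illumina HiSeq 2500. DiMSum fitness is the error-weighted combination of wild-type-normalised replicate fold changes, kanamycin versus none.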

± gives the uncertainty stated by the source.

As for GGGAAGCAAUAUUACGUUUU, the “self-splicing fitness (ln)” value runs as follows: (30 °C) -2.68 ± 0.23; (37 °C) -1.62 ± 0.25.
The corresponding values for CCUGAGCAAUAUUACGCAAU are -3.31 ± 0.19 and -2.68 ± 0.24.
Turning to CCGUAGCAAUAUUACGUUAC, the “self-splicing fitness (ln)” value (30 °C) was -4.02 ± 0.32 and the “self-splicing fitness (ln)” value (37 °C) is -2.27 ± 0.42.
For AGGAAGCAAUAUUACGAUUG the same measures were -3.96 ± 0.36 and -3.3 ± 0.28.
As to CACUAGCAAUAUUACGUAGA, the “self-splicing fitness (ln)” value was -3.01 ± 0.089 (30 °C) and -1.81 ± 0.096 (37 °C).
Regarding GAAAAGCAAUAUUACGAUAU, the “self-splicing fitness (ln)” value is, setting by setting: (30 °C) -1.15 ± 0.071; (37 °C) -0.354 ± 0.093.
Turning to CCGGAGCAAUAUUACGGUCC, the “self-splicing fitness (ln)” value (30 °C) is -1.43 ± 0.23.
For the sequence GUGAAGCAAUAUUACGGAGC, the “self-splicing fitness (ln)” value was -4.68 ± 0.46 (30 °C) and -1.38 ± 0.16 (37 °C).
Consider GAGCAGCAAUAUUACGGGAC, for which the “self-splicing fitness (ln)” value by setting is: (30 °C) -2.82 ± 0.19; (37 °C) -2.74 ± 0.15.
For UUAUAGCAAUAUUACGGAAA the same measures were -2.13 ± 0.22 and -1.67 ± 0.23.
The corresponding values for UGGCAGCAAUAUUACGAGCU are -1.98 ± 0.16 and -1.91 ± 0.19.
In the case of CCAUAGCAAUAUUACGUAGG, the “self-splicing fitness (ln)” value (30 °C) is -2.29 ± 0.078 and the “self-splicing fitness (ln)” value (37 °C) was -1.37 ± 0.094.
For AGUCAGCAAUAUUACGGAUA the same measures were -0.982 ± 0.1 and -0.318 ± 0.098.
In the case of GGGAAGCAAUAUUACGAUAC, the “self-splicing fitness (ln)” value is, setting by setting: (30 °C) -0.528 ± 0.14; (37 °C) -0.986 ± 0.16.
For CAGAAGCAAUAUUACGCGGG the same measures were -2.43 ± 0.2 and -2.74 ± 0.27.
On to CCGAAGCAAUAUUACGUGGA, for which the “self-splicing fitness (ln)” value runs as follows: (30 °C) -3.71 ± 0.29; (37 °C) -2.47 ± 0.17.
The corresponding values for UUCCAGCAAUAUUACGUGAA are 0.179 ± 0.072 and -0.102 ± 0.094.
For CAUGAGCAAUAUUACGAUCU the same measures were -2.9 ± 0.36 and -2.37 ± 0.3.
For the sequence UAACAGCAAUAUUACGACAC, the “self-splicing fitness (ln)” value by setting is: (30 °C) -3.35 ± 0.16; (37 °C) -0.676 ± 0.11.
For CGCAAGCAAUAUUACGUAUU the same measures were -3.08 ± 0.21 and -3.5 ± 0.35.
With AACCAGCAAUAUUACGUACG, the “self-splicing fitness (ln)” value by setting is: (30 °C) -1.42 ± 0.063; (37 °C) -0.431 ± 0.067.
For GGUUAGCAAUAUUACGACUU the same measures were -0.187 ± 0.12 and 1.17 ± 0.16.
In the case of ACGUAGCAAUAUUACGAAGU, the “self-splicing fitness (ln)” value by setting is: (30 °C) -2.97 ± 0.2; (37 °C) -2.86 ± 0.21.
With ACUGAGCAAUAUUACGAACU, the “self-splicing fitness (ln)” value by setting is: (30 °C) -1.92 ± 0.13; (37 °C) -1.24 ± 0.16.
On to ACGAAGCAAUAUUACGUUUA, for which the “self-splicing fitness (ln)” value is, setting by setting: (30 °C) -2.05 ± 0.11; (37 °C) -0.875 ± 0.085.
Take UCCCAGCAAUAUUACGGAGA: the “self-splicing fitness (ln)” value by setting is: (30 °C) -1.18 ± 0.084; (37 °C) -0.484 ± 0.11.
The corresponding values for GGUUAGCAAUAUUACGUACU are -1.22 ± 0.24 and -1.27 ± 0.32.
The corresponding values for UGUCAGCAAUAUUACGUGCG are -0.00445 ± 0.076 and 0.159 ± 0.092.
For GUACAGCAAUAUUACGUAGU the same measures were -2.84 ± 0.11 and -2.08 ± 0.14.
Take CCUGAGCAAUAUUACGAUCC: the “self-splicing fitness (ln)” value runs as follows: (30 °C) -4.29 ± 0.47; (37 °C) -2.96 ± 0.48.
Consider AGCGAGCAAUAUUACGGACG, for which, under “37 °C”, the “self-splicing fitness (ln)” value is -1.9 ± 0.36.
Turning to GUGGAGCAAUAUUACGGGGC, the “self-splicing fitness (ln)” value runs as follows: (30 °C) -3.48 ± 0.48; (37 °C) -1.93 ± 0.31.
Turning to CCCCAGCAAUAUUACGGAAG, the “self-splicing fitness (ln)” value runs as follows: (30 °C) -2.27 ± 0.088; (37 °C) -1.73 ± 0.11.
As for GGCGAGCAAUAUUACGCCAG, the “self-splicing fitness (ln)” value was -1 ± 0.18 (30 °C) and -2.71 ± 0.44 (37 °C).
The corresponding values for AAUAAGCAAUAUUACGAUCC are -0.993 ± 0.21 and -0.374 ± 0.24.
UCCCAGCAAUAUUACGCGUG: the “self-splicing fitness (ln)” value reads like this: (30 °C) -3.49 ± 0.18; (37 °C) -2.34 ± 0.2.
Turning to CCAGAGCAAUAUUACGAUCC, the “self-splicing fitness (ln)” value (37 °C) is -1.91 ± 0.38.
Turning to GGACAGCAAUAUUACGCGAA, the “self-splicing fitness (ln)” value is -1.07 ± 0.08 (30 °C) and -0.612 ± 0.094 (37 °C).
The corresponding values for UGAUAGCAAUAUUACGUUUG are -1.26 ± 0.073 and 0.0201 ± 0.099.
With UGUAAGCAAUAUUACGUGGA, the “self-splicing fitness (ln)” value is -2.52 ± 0.25 (30 °C) and -1.78 ± 0.22 (37 °C).
For the sequence UGGGAGCAAUAUUACGUCUG, the “self-splicing fitness (ln)” value reads like this: (30 °C) -1.46 ± 0.12; (37 °C) -0.899 ± 0.17.
The corresponding values for CACGAGCAAUAUUACGUCUG are -2.32 ± 0.095 and -0.929 ± 0.092.
For AUACAGCAAUAUUACGCACC the same measures were -1.21 ± 0.086 and -1.05 ± 0.1.
The corresponding values for CCCUAGCAAUAUUACGGCUU are -3.76 ± 0.18 and -2.26 ± 0.18.
Take CGAAAGCAAUAUUACGCGAA: the “self-splicing fitness (ln)” value runs as follows: (30 °C) -1.82 ± 0.24; (37 °C) -2.02 ± 0.3.
Take AACUAGCAAUAUUACGGACG: the “self-splicing fitness (ln)” value reads like this: (30 °C) -1.21 ± 0.06; (37 °C) -0.904 ± 0.072.
For CCCUAGCAAUAUUACGUUUG, the “self-splicing fitness (ln)” value runs as follows: (30 °C) -3.93 ± 0.16; (37 °C) -2.79 ± 0.18.
Regarding AAGAAGCAAUAUUACGAGGA, the “self-splicing fitness (ln)” value (30 °C) was -3.43 ± 0.28 and the “self-splicing fitness (ln)” value (37 °C) is -2.98 ± 0.3.
As to AUCCAGCAAUAUUACGCCGA, the “self-splicing fitness (ln)” value (30 °C) was -1.37 ± 0.1 and the “self-splicing fitness (ln)” value (37 °C) is -0.75 ± 0.14.
As to GCCAAGCAAUAUUACGUAUA, the “self-splicing fitness (ln)” value by setting is: (30 °C) -2 ± 0.23; (37 °C) -0.632 ± 0.15.
Turning to AUUAAGCAAUAUUACGACUC, the “self-splicing fitness (ln)” value is, setting by setting: (30 °C) 0.675 ± 0.23; (37 °C) -0.203 ± 0.36.
As to UUACAGCAAUAUUACGCCUC, the “self-splicing fitness (ln)” value reads like this: (30 °C) -3.31 ± 0.38; (37 °C) -2.03 ± 0.38.
In the case of CGAUAGCAAUAUUACGUACC, the “self-splicing fitness (ln)” value (37 °C) was -1.56 ± 0.44.
In the case of AUACAGCAAUAUUACGAUGC, the “self-splicing fitness (ln)” value runs as follows: (30 °C) -1.75 ± 0.11; (37 °C) -1.17 ± 0.16.
As to AAAGAGCAAUAUUACGUCAA, the “self-splicing fitness (ln)” value is, setting by setting: (30 °C) -3.31 ± 0.18; (37 °C) -2.61 ± 0.19.
The corresponding values for AAACAGCAAUAUUACGACGU are -0.232 ± 0.045 and 0.39 ± 0.052.
The corresponding values for UAAAAGCAAUAUUACGCUAU are -2.11 ± 0.15 and -2.2 ± 0.19.
As for AACCAGCAAUAUUACGAUGU, the “self-splicing fitness (ln)” value (30 °C) was -0.353 ± 0.039 and the “self-splicing fitness (ln)” value (37 °C) was 0.149 ± 0.054.
GUGAAGCAAUAUUACGUCAG: the “self-splicing fitness (ln)” value was -0.462 ± 0.076 (30 °C) and -0.996 ± 0.08 (37 °C).
For CGGCAGCAAUAUUACGAGUG the same measures were -1.03 ± 0.086 and 0.319 ± 0.1.
The corresponding values for UCCUAGCAAUAUUACGUUGA are -0.805 ± 0.071 and 0.0396 ± 0.089.
For CUGCAGCAAUAUUACGAUCG the same measures were -0.0275 ± 0.073 and 0.558 ± 0.1.
Regarding CAAAAGCAAUAUUACGCGCA, the “self-splicing fitness (ln)” value was -1.05 ± 0.1 (30 °C) and -0.548 ± 0.1 (37 °C).
The corresponding values for UACCAGCAAUAUUACGCUUA are -0.566 ± 0.056 and -0.478 ± 0.07.
For ACCAAGCAAUAUUACGCUUU the same measures were -2.41 ± 0.093 and -1.45 ± 0.1.
The corresponding values for UUAAAGCAAUAUUACGAACA are -0.0579 ± 0.13 and 0.708 ± 0.18.
Consider UGACAGCAAUAUUACGGCCU, for which the “self-splicing fitness (ln)” value is, setting by setting: (30 °C) -0.801 ± 0.068; (37 °C) 0.131 ± 0.078.
As for CGAUAGCAAUAUUACGUUAC, the “self-splicing fitness (ln)” value by setting is: (30 °C) -3.47 ± 0.28; (37 °C) -2.17 ± 0.2.
The corresponding values for AAGCAGCAAUAUUACGUCGU are -2.51 ± 0.095 and -0.636 ± 0.12.
ACGAAGCAAUAUUACGGUAA: the “self-splicing fitness (ln)” value is -2.49 ± 0.17 (30 °C) and -1.33 ± 0.14 (37 °C).
Regarding ACAUAGCAAUAUUACGAAUU, the “self-splicing fitness (ln)” value reads like this: (30 °C) -3.3 ± 0.2; (37 °C) -1.26 ± 0.14.
For AUUCAGCAAUAUUACGAUCU the same measures were -0.272 ± 0.057 and 0.457 ± 0.078.
Turning to ACGCAGCAAUAUUACGGCCG, the “self-splicing fitness (ln)” value (30 °C) is -1.66 ± 0.11 and the “self-splicing fitness (ln)” value (37 °C) was -0.0837 ± 0.15.
On to GGCAAGCAAUAUUACGACCU, for which the “self-splicing fitness (ln)” value (30 °C) is -0.895 ± 0.12 and the “self-splicing fitness (ln)” value (37 °C) is -0.997 ± 0.12.
For UGCGAGCAAUAUUACGUGCU, under “37 °C”, the “self-splicing fitness (ln)” value is -1.79 ± 0.32.
With UCAUAGCAAUAUUACGUGCG, the “self-splicing fitness (ln)” value (30 °C) was -1.26 ± 0.11 and the “self-splicing fitness (ln)” value (37 °C) was -0.279 ± 0.1.

The values are drawn from the supplement of paper PMC7877785.
